The source of these data is US20240247073A1 (CONCEPT TO MEDICINE BIOTECH, published 2024).

Numbering of substitutions follows the chain as printed.

Experiment [1] deals with T1, human CD40 on the cell surface (human, UniProt P25942 21-277).
T1 construct: whole, on cells; also called cell surface CD40; Jurkat-CD40 cells
Nature of the experiment: flow cytometry on Jurkat cells overexpressing human CD40, PE anti-human IgG, MFI. The procedure: To evaluate their binding affinity to cell surface CD40, chimeric anti-CD40 monospecific antibodies were tested in Jurkat cell lines that overexpressed CD40 by FACS. A total number of 1×10⁵ Jurkat-CD40 cells in each well were incubated with 10-fold serially diluted antibodies starting from 100 nM for 30 minutes at 4° C. in FACS buffer. After wash by FACS buffer, PE conjugated-anti-human IgG antibody was added to each well and incubated at 4 °C for 30 minutes. After wash, MFI of PE was evaluated by MACSQuant Analyzer 16.

The target of experiment [2] is T1, human CD40 on the cell surface. Nature of the experiment: flow cytometry on human monocyte-derived dendritic cells (CD11c+ gate), PE anti-human IgG Fc, MFI. For orientation: Flow cytometry measures light scatter and fluorescence of single cells or particles in a stream.
For experiment [3], the target named is T2, human CD40-His protein (human, UniProt P25942 21-193).
T2 construct: Recombinant His-tagged protein; also called human CD40-his tag; recombinant CD40 protein; not shown: His tag
T2 sequence (P25942 21-193 limits assumed): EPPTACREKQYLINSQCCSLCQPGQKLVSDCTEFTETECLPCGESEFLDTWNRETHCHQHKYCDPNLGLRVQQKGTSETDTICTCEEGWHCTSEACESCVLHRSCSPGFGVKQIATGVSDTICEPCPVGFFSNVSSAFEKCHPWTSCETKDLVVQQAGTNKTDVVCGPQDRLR
Nature of the experiment: ELISA, coated human CD40-His. The procedure: (§1) Briefly, microtiter plates were coated with human CD40-His protein at 1.0 μg/ml in PBS, 100 μl/well at 4° C. overnight, then blocked with 150 μl/well of 1% BSA. Ten-fold dilutions of 42p155, 2p834, 2p931, 42p655, 2p1294, 2p957, 42p495, 3p78, 2p415, 2p442, 2p551, 2p80 and 2p1130 antibodies starting from 100 nM were added to each well and incubated for 1 hour at RT. The plates were washed with PBS/Tween and then incubated with Anti-Human IgG (H&L) (GOAT) Antibody Peroxidase Conjugated for 30 mins at RT. After washing, the plates were developed with TMB substrate and analyzed by spectrophotometer at OD 450 nm.

Experiment [4] concerns the target T3, cynomolgus CD40-His protein (cynomolgus, UniProt G7PG38 21-193).
T3 construct: Recombinant His-tagged protein; also called cyno CD40 antigen; not shown: His tag
Nature of the experiment: ELISA, coated cynomolgus CD40-His. Here is the method:
as §1, with “The binding affinity of these clones to cynomolgus CD40 was also tested. Microtiter” for “Briefly, microtiter”, “cynomolgus” for “human”, “4 °C” for “4° C.”, “nm. As shown in FIG. 1B and Table 2, all these clones bound to cynomolgus CD40 at high activity, showing good cross-reactivity between human and cynomolgus CD40 proteins.” for “nm.”
On the technique in general: ELISA stands for enzyme-linked immunosorbent assay.

The target of experiment [5] is T2, human CD40-His protein. Nature of the experiment: SPR (Biacore T200), antibody captured on Protein A. The procedure: The binding of the humanized 42pl55 and 2p442 antibodies to recombinant human CD40 protein (human CD40-his tag) was tested by Biacore and Octet, respectively, using a capture method.
For humanized 42pl55 monoclonal antibodies, 42p155z2 and 42p155z3 were captured using Protein A chip. A serial dilution of human CD40-his tag protein was injected over captured antibody for 3 mins at a flow rate of 10 μl/min. The antigen was allowed to dissociate for 6 min. All the experiments were carried out on a Biacore T200. Data analysis was carried out using Biacore T200 evaluation software.
For orientation: Surface plasmon resonance follows binding to a sensor surface in real time, without labels.

T1 sequence (P25942 21-277): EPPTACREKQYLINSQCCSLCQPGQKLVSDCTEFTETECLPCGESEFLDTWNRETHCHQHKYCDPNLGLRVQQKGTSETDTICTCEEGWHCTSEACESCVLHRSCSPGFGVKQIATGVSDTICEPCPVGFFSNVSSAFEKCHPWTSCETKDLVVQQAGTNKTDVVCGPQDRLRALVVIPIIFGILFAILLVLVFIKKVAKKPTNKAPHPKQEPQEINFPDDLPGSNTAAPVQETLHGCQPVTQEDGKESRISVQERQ

B1: 42p495 chimeric monospecific antibody (antibody, V domains shown)
VH: PVQLVESGGNLVQPGGSLRLSCVAPGFTSRNSAMSWVRQAPGKGLEWVSTIYSGKSNTDYADSVKGRFTISTDNAKNTLYLHMNKLKSEDTAVYYCAKGAASDWYVPRDYWGQGTQVTVSS
notes: VHH-chimeric monospecific antibody (cAb), detected with anti-human IgG
For B1, the concentration for a half-maximal effect (EC50 (read off the curve)) in experiment [1] is approximately 2 nM.

B2: 2p834 anti-Claudin 18.2/CD40 bispecific antibody (bispecific antibody, part only; not given: Claudin 18.2 Fab, constant regions, linker, V domains shown, not shown: another chain or arm of the molecule; a dimerising Fc or GST; small tags and cut ends)
VHH: QSQLVESGGGLVQPGGSLRLSCAASGFAFRRYTMSWVRQAPGKGLEWVSTITHNGSITTYAESAQGRFTISRDNAKNTLYLQMNSLKPEDTAVYYCAQGGGSNYYRESWGQGTQVTVSS
B2 displayed an EC50 (read off the curve) in experiment [2] of 1 nM.

B3: 42p155 chimeric monospecific antibody (antibody, V domains shown)
VH: B2 VHH with Q1P, R31S, S56A
notes: VHH-chimeric monospecific antibody (cAb), detected with anti-human IgG; also called 42pl55; not shown: human constant part (Fc) of the chimeric VHH antibody
In the experiment with human CD40-His protein [3], B3 returned an EC50 of 1.73 nM. This molecule yielded an EC50 in experiment [4] of 0.9 nM. In the experiment with human CD40-His protein [5], the Kd came to 86.9 nM, the koff is 0.0451 s⁻¹ and the kon came out at 519000 M⁻¹ s⁻¹. For the same molecule, the “EC50 (read off the curve)” value in experiment [1] is approximately 0.3 nM.

B4: 2p1294 chimeric monospecific antibody (antibody, V domains shown)
VH: B2 VHH with S2V, A28S, T50A, T52S, H53D, S56A, A61T
notes: as for B1
Take B4: the “EC50 (read off the curve)” value in experiment [1] was approximately 0.3 nM.

B5: 2p957 chimeric monospecific antibody (antibody, V domains shown)
VH: PVQLVESGGGLVQPGGSLRLSCAASGFSFRNYIMSWVRQAPGKGLEWLSSITNSGGITSYTESVKGRFTISRDNAKNTLYLQMNSLKPEDTAVYYCAQGGSDNYYRGSWGQGTQVTVSS
notes: as for B1
Regarding B5, the half-maximal effective concentration (EC50 (read off the curve)) in experiment [1] was approximately 3 nM.

By EC50 (read off the curve) is commonly meant the concentration that produces a half-maximal response. A word on the EC50: it is the midpoint of the concentration-response curve. Low readings indicate greater potency, high ones weaker potency. Broadly, the Kd is the constant that tells how readily two partners part at equilibrium. The term koff denotes the rate constant with which the complex falls apart. A high value points to fast dissociation. By kon is commonly meant the rate constant with which the complex forms. A lower kon goes with slower complex formation.
